According to patent publication US20210060169A1:
Numbering of substitutions follows the chain as printed. Blank lines part the entries; values can stand above or below the binder they belong to.

Experiments:
human IL-2Rαβγ (human) = human IL-2Rαβγ (human) (UniProt P01589); assay: cell-based or functional assay
human IL-2Rβγ (human) = human IL-2Rβγ (human) (UniProt P14784); assay: cell-based or functional assay
Chain of human IL-2Rβγ (human) (P14784 27-551, chain 1 of 2): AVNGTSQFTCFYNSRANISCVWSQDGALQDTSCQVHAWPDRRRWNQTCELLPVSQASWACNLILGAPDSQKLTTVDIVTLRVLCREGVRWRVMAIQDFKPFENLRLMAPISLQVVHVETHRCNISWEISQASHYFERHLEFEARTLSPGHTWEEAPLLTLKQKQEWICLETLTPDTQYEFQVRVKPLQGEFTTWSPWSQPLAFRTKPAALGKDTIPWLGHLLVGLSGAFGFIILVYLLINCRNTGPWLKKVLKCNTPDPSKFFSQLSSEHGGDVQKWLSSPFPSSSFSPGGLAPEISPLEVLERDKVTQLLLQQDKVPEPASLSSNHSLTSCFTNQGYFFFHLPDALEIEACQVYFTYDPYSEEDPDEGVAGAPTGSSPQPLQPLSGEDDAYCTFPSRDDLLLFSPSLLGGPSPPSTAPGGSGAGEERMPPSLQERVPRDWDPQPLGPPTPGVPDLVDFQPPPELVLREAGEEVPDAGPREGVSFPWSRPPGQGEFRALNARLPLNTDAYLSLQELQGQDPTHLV
Chain of human IL-2Rβγ (human) (P31785 23-369, chain 2 of 2, further chain): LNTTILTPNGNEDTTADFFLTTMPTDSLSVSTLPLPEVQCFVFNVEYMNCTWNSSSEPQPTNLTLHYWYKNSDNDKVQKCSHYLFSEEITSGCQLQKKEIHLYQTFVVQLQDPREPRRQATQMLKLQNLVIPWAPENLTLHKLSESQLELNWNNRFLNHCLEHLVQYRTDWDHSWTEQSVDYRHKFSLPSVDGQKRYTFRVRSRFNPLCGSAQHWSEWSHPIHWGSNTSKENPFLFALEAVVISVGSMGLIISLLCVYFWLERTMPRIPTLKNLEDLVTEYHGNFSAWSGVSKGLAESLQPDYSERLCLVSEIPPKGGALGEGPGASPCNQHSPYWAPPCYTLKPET

Chain of human IL-2Rαβγ (human) (P01589 22-272, chain 1 of 3): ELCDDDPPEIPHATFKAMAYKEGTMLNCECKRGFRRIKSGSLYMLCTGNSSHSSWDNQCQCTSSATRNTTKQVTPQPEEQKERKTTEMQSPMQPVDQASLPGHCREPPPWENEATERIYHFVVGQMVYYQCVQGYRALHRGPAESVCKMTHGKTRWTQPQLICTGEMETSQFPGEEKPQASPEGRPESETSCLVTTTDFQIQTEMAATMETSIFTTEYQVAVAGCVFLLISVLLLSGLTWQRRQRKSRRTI
Chain of human IL-2Rαβγ (human) (P14784 27-551, chain 2 of 3, further chain): as the sequence (P14784 27-551, chain 1 of 2) above
Chain of human IL-2Rαβγ (human) (P31785 23-369, chain 3 of 3, further chain): as the sequence (P31785 23-369, chain 2 of 2, further chain) above

Standardized EC50 ratio value (human IL-2Rαβγ (human)): > 30 | Treg proliferation rate at 650 to 6500 pmol/L (human IL-2Rαβγ (human)): > 80%
B1: 8His-S4(oAzZK)-Li30/F78(oAzZK)-Li30 (ligand)
chain: MHHHHHHHHAPTKSSTKKTQLQLEHLLLDLQMILNGINNYKNPKLTRMLTFKFYMPKKATELKHLQCLEEELKPLEEVLNLAQSKNKHLRPRDLISNINVIVLELKGSETTFMCEYADETATIVEFLNRWITFSQSIISTLT

Standardized EC50 ratio value (human IL-2Rαβγ (human)): > 30 | Treg proliferation rate at 650 to 6500 pmol/L (human IL-2Rαβγ (human)): > 80% | NK cell proliferation rate at 65 nmol/L (proliferation medium) (human IL-2Rβγ (human)): < 20%
B2: 8His-S4(oAzZK)-Li30/I129(oAzZK)-Li30 (ligand)
chain: B1 chain with K87F, I138K

Standardized EC50 ratio value (human IL-2Rαβγ (human)): > 30
B3: 8His-S4(oAzZK)-Y50/I129(oAzZK)-Y50 (ligand)
chain: B1 chain with K87F, I138K
